FireProtDB (doi:10.1016/s0167-4838(98)00243-x)
Several values for one entry are separate records, joined by “and”; a condition that tells them apart may be missing. Equal entries are not always repeated.

B1: Chitosanase, P33665 (parent)
chain: MHSQHRTARIALAVVLTAIPASLATAGVGYASTQASTAVKAGAGLDDPHKKEIAMELVSSAENSSLDWKAQYKYIEDIGDGRGYTGGIIGFCSGTGDMLELVQHYTDLEPGNILAKYLPALKKVNGSASHSGLGTPFTKDWATAAKDTVFQQAQNDERDRVYFDPAVSQAKADGLRALGQFAYYDAIVMHGPGNDPTSFGGIRKTAMKKARTPAQGGDETTYLNAFLDARKAAMLTEAAHDDTSRVDTEQRVFLKAGNLDLNPPLKWKTYGDPYVINS

Variants of: B1
Conditions: Streptomyces sp. (strain N174); pH 7; 42.7 °C; Thermal; CD; sodium phosphate 50 mM; transition: 3; reversible: yes(77%); structure 1CHK; whole UniProt chain shown

| Variant | ddG of mutation (higher = less stable) |
| --- | --- |
| MHSQHRTARIALAVVLTAIPASLATAGVGYASTQASTAVKAGAGLDDPHKKEIAMELVSSAENSSLDFKAQYKYIEDIGDGRGYTGGIIGFCSGTGDMLELVQHYTDLEPGNILAKYLPALKKVNGSASHSGLGTPFTKDWATAAKDTVFQQAQNDERDRVYFDPAVSQAKADGLRALGQFAYYDAIVMHGPGNDPTSFGGIRKTAMKKARTPAQGGDETTYLNAFLDARKAAMLTEAAHDDTSRVDTEQRVFLKAGNLDLNPPLKWKTYGDPYVINS [W68F] | 14.9 kJ/mol |

Same assay, conditions: Streptomyces sp. (strain N174); pH 7; 43.2 °C; Thermal; Fluorescence; sodium phosphate 50 mM; reversible: yes(75%); structure 1CHK; whole UniProt chain shown

| Variant | ddG of mutation (higher = less stable) |
| --- | --- |
| MHSQHRTARIALAVVLTAIPASLATAGVGYASTQASTAVKAGAGLDDPHKKEIAMELVSSAENSSLDFKAQYKYIEDIGDGRGYTGGIIGFCSGTGDMLELVQHYTDLEPGNILAKYLPALKKVNGSASHSGLGTPFTKDWATAAKDTVFQQAQNDERDRVYFDPAVSQAKADGLRALGQFAYYDAIVMHGPGNDPTSFGGIRKTAMKKARTPAQGGDETTYLNAFLDARKAAMLTEAAHDDTSRVDTEQRVFLKAGNLDLNPPLKWKTYGDPYVINS [W68F] | 18.5 kJ/mol |

Same assay, conditions: Streptomyces sp. (strain N174); pH 7; 52.2 °C; Thermal; CD; sodium phosphate 50 mM; transition: 3; reversible: yes(77%); structure 1CHK; whole UniProt chain shown

| Variant | ddG of mutation (higher = less stable) |
| --- | --- |
| MHSQHRTARIALAVVLTAIPASLATAGVGYASTQASTAVKAGAGLDDPHKKEIAMELVSSAENSSLDFKAQYKYIEDIGDGRGYTGGIIGFCSGTGDMLELVQHYTDLEPGNILAKYLPALKKVNGSASHSGLGTPFTKDWATAAKDTVFQQAQNDERDRVYFDPAVSQAKADGLRALGQFAYYDAIVMHGPGNDPTSFGGIRKTAMKKARTPAQGGDETTYLNAFLDARKAAMLTEAAHDDTSRVDTEQRVFLKAGNLDLNPPLKWKTYGDPYVINS [W68F] | 7.36 kJ/mol |

Same assay, conditions: Streptomyces sp. (strain N174); pH 7; Thermal; CD; sodium phosphate 50 mM; transition: 3; reversible: yes(77%); structure 1CHK; whole UniProt chain shown

| Variant | Tm | change of melting temperature, mutant - wild type (higher = more stable) | unfolding enthalpy (van 't Hoff) |
| --- | --- | --- | --- |
| MHSQHRTARIALAVVLTAIPASLATAGVGYASTQASTAVKAGAGLDDPHKKEIAMELVSSAENSSLDFKAQYKYIEDIGDGRGYTGGIIGFCSGTGDMLELVQHYTDLEPGNILAKYLPALKKVNGSASHSGLGTPFTKDWATAAKDTVFQQAQNDERDRVYFDPAVSQAKADGLRALGQFAYYDAIVMHGPGNDPTSFGGIRKTAMKKARTPAQGGDETTYLNAFLDARKAAMLTEAAHDDTSRVDTEQRVFLKAGNLDLNPPLKWKTYGDPYVINS [W68F] | 45.2 °C | -7 °C | 335 kJ/mol |

Same assay, conditions: Streptomyces sp. (strain N174); pH 7; Thermal; Fluorescence; sodium phosphate 50 mM; reversible: yes(75%); structure 1CHK; whole UniProt chain shown

| Variant | Tm | change of melting temperature, mutant - wild type (higher = more stable) | unfolding enthalpy (van 't Hoff) |
| --- | --- | --- | --- |
| MHSQHRTARIALAVVLTAIPASLATAGVGYASTQASTAVKAGAGLDDPHKKEIAMELVSSAENSSLDFKAQYKYIEDIGDGRGYTGGIIGFCSGTGDMLELVQHYTDLEPGNILAKYLPALKKVNGSASHSGLGTPFTKDWATAAKDTVFQQAQNDERDRVYFDPAVSQAKADGLRALGQFAYYDAIVMHGPGNDPTSFGGIRKTAMKKARTPAQGGDETTYLNAFLDARKAAMLTEAAHDDTSRVDTEQRVFLKAGNLDLNPPLKWKTYGDPYVINS [W68F] | 36.2 °C | -7 °C | 822 kJ/mol |

Same assay, conditions: Streptomyces sp. (strain N174); pH 7; 42.7 °C; Thermal; CD; sodium phosphate 50 mM; transition: 3; reversible: yes(79%); structure 1CHK; whole UniProt chain shown

| Variant | ddG of mutation (higher = less stable) |
| --- | --- |
| MHSQHRTARIALAVVLTAIPASLATAGVGYASTQASTAVKAGAGLDDPHKKEIAMELVSSAENSSLDWKAQYKYIEDIGDGRGYTGGIIGFCSGTGDMLELVQHYTDLEPGNILAKYLPALKKVNGSASHSGLGTPFTKDFATAAKDTVFQQAQNDERDRVYFDPAVSQAKADGLRALGQFAYYDAIVMHGPGNDPTSFGGIRKTAMKKARTPAQGGDETTYLNAFLDARKAAMLTEAAHDDTSRVDTEQRVFLKAGNLDLNPPLKWKTYGDPYVINS [W141F] | 16.4 kJ/mol |

Same assay, conditions: Streptomyces sp. (strain N174); pH 7; 43.2 °C; Thermal; Fluorescence; sodium phosphate 50 mM; reversible: yes(77%); structure 1CHK; whole UniProt chain shown

| Variant | ddG of mutation (higher = less stable) |
| --- | --- |
| MHSQHRTARIALAVVLTAIPASLATAGVGYASTQASTAVKAGAGLDDPHKKEIAMELVSSAENSSLDWKAQYKYIEDIGDGRGYTGGIIGFCSGTGDMLELVQHYTDLEPGNILAKYLPALKKVNGSASHSGLGTPFTKDFATAAKDTVFQQAQNDERDRVYFDPAVSQAKADGLRALGQFAYYDAIVMHGPGNDPTSFGGIRKTAMKKARTPAQGGDETTYLNAFLDARKAAMLTEAAHDDTSRVDTEQRVFLKAGNLDLNPPLKWKTYGDPYVINS [W141F] | 17.9 kJ/mol |

Same assay, conditions: Streptomyces sp. (strain N174); pH 7; 52.2 °C; Thermal; CD; sodium phosphate 50 mM; transition: 3; reversible: yes(79%); structure 1CHK; whole UniProt chain shown

| Variant | ddG of mutation (higher = less stable) |
| --- | --- |
| MHSQHRTARIALAVVLTAIPASLATAGVGYASTQASTAVKAGAGLDDPHKKEIAMELVSSAENSSLDWKAQYKYIEDIGDGRGYTGGIIGFCSGTGDMLELVQHYTDLEPGNILAKYLPALKKVNGSASHSGLGTPFTKDFATAAKDTVFQQAQNDERDRVYFDPAVSQAKADGLRALGQFAYYDAIVMHGPGNDPTSFGGIRKTAMKKARTPAQGGDETTYLNAFLDARKAAMLTEAAHDDTSRVDTEQRVFLKAGNLDLNPPLKWKTYGDPYVINS [W141F] | 7.91 kJ/mol |

Same assay, conditions: Streptomyces sp. (strain N174); pH 7; Thermal; CD; sodium phosphate 50 mM; transition: 3; reversible: yes(79%); structure 1CHK; whole UniProt chain shown

| Variant | change of melting temperature, mutant - wild type (higher = more stable) | unfolding enthalpy (van 't Hoff) |
| --- | --- | --- |
| MHSQHRTARIALAVVLTAIPASLATAGVGYASTQASTAVKAGAGLDDPHKKEIAMELVSSAENSSLDWKAQYKYIEDIGDGRGYTGGIIGFCSGTGDMLELVQHYTDLEPGNILAKYLPALKKVNGSASHSGLGTPFTKDFATAAKDTVFQQAQNDERDRVYFDPAVSQAKADGLRALGQFAYYDAIVMHGPGNDPTSFGGIRKTAMKKARTPAQGGDETTYLNAFLDARKAAMLTEAAHDDTSRVDTEQRVFLKAGNLDLNPPLKWKTYGDPYVINS [W141F] | -7.1 °C and -7.5 °C | 711 kJ/mol and 335 kJ/mol |
